Literature values in PMC1513386.
Like-named read-outs stand apart in the source and are kept apart here.

Columns and labels:
Glu115 = Glu115 (UniProt position 142, SKKPKENPGPA); experiment: NMR
Glu96 = Glu96 (UniProt position 123, DHYLLEFPTFP); experiment: NMR
Glu73 = Glu73 (UniProt position 120, GRTWREADINY); details: not stated (values are paired with the folded structure 1A2P; ref 20 covers native and denatured states)
Asp93 = Asp93 (UniProt position 140, ILYSSDWLIYK); details: not stated (values are paired with the folded structure 1A2P; ref 20 covers native and denatured states)
Asp54 = Asp54 (UniProt position 101, KSIGGDIFSNR); details: not stated (values are paired with the folded structure 1A2P; ref 20 covers native and denatured states)
Asp101 [1] = target: Asp101 (UniProt position 148, IYKTTDHYQTF); details: not stated (values are paired with the folded structure 1A2P; ref 20 covers native and denatured states)
Asp72 = Asp72 (UniProt position 92, NPPNCDLTVPT); experiment: NMR
Asp21 = Asp21 (UniProt position 41, VSILSDASFNQ); experiment: NMR
Asp30 = Asp30 (UniProt position 50, NQCSTDSGYSM); experiment: NMR
Asp101 [2] = target: Asp101 (UniProt position 129, GTVKSDGGTYD)
Asp83 = Asp83 (UniProt position 111, EYYVVDSWGTY)
Asp11 = Asp11 (UniProt position 39, WQNWTDGGGIV)
Asp106 = Asp106 (UniProt position 134, DGGTYDIYTTT)
Glu172 = Glu172 (UniProt position 200, QVMATEGYQSS)
Asp44 = Asp44 (UniProt position 44, AARQPDLIPLL); experiment: NMR
Asp61 = Asp61 (UniProt position 61, VMGLVDAIPMI); experiment: NMR
Glu2 = Glu2 (UniProt position 2, ----MENLNMD); experiment: NMR
Asp7 = Asp7 (UniProt position 7, ENLNMDLLYMA); experiment: NMR
Glu37 = Glu37 (UniProt position 37, GGKFLEGAARQ); experiment: NMR
Glu7 = Glu7 (UniProt position 25, VYGRCELAAAM); experiment: NMR
Asp18 = Asp18 (UniProt position 36, KRLGLDNYRGY); experiment: NMR
Asp48 = Asp48 (UniProt position 66, TNRNTDGSTDY); experiment: NMR
Asp87 = Asp87 (UniProt position 105, ALLSSDITASV); experiment: NMR
Asp66 = Asp66 (UniProt position 84, RWWCNDGRTPG); experiment: NMR
Glu35 = Glu35 (UniProt position 53, CAAKFESNFNT); experiment: NMR
Asp70 = Asp70 (UniProt position 70, VILSTDSQYVR); experiment: NMR
Asp10 = Asp10 (UniProt position 10, VEIFTDGSCLG); experiment: NMR
Asp148 = Asp148 (UniProt position 148, NPTLEDTGYQV); experiment: NMR
Asp102 = Asp102 (UniProt position 102, PVKNVDLWQRL); experiment: NMR
Asp59 = Asp59 (UniProt position 80, VCCSTDKCN--)
Glu68 = Glu68 (UniProt position 68, QDVASECEVKC)
Asp26 = Asp26 (UniProt position 26, KLVVVDFSATW)
Glu6 = Glu6 (UniProt position 6, MVKQIESKTAF); details: listed under PDB 1TRS; redox state not stated in the article, and 1TRS is the oxidised form (inferred)
[3] = listed under PDB 1TRS, redox state not stated in the article, and 1TRS is the oxidised form (inferred)
[4] = listed under PDB 1TRW, redox state not stated in the article, and 1TRW is the reduced form (inferred)

In the case of “Alpha-sarcin (cytotoxic ribonuclease) (Aspergillus giganteus)”, the pKa (Glu115) is listed as 4.90 and the pKa (Glu96) is listed as 5.10.
For “Barnase (ribonuclease) (Bacillus amyloliquefaciens)”, the pKa (Glu73) is listed as 2.10, the pKa (Asp93) is listed as 2.00 and the pKa (Asp54) is listed as 2.00. For the same substance, the pKa (Asp101 [1]) was 2.00.
For “Beta-elicitin cryptogein (Phytophthora cryptogea)”, the pKa (Asp72) is listed as 2.60, the pKa (Asp21) is listed as 2.50 and the pKa (Asp30) is listed as 2.50.
For “Endo-1,4-beta-xylanase (Bacillus circulans xylanase) (Bacillus circulans)”, the pKa (Asp101 [2]) is given as 2.00, the pKa (Asp83) is given as 2.00 and the pKa (Asp11) is given as 2.50. For the same substance, the pKa (Asp106) was 2.70 and the pKa (Glu172) was 6.70.
For “F1Fo ATP synthase subunit c (Escherichia coli)”, the pKa (Asp44) is given as 5.60, the pKa (Asp61) is given as 7.00 and the pKa (Glu2) is given as 5.50. The pKa (Asp7) was 5.60 and the pKa (Glu37) was 5.50.
In the case of “Lysozyme C (turkey egg white) (Meleagris gallopavo)”, the pKa (Glu7) is given as 2.70, the pKa (Asp18) is given as 2.70 and the pKa (Asp48) is given as 2.50. The pKa (Asp87) was 2.10, the pKa (Asp66) was 2.00 and the pKa (Glu35) was 6.10.
For Ribonuclease HI (Escherichia coli), the pKa (Asp70) is listed as 2.60, the pKa (Asp10) is listed as 6.10 and the pKa (Asp148) is listed as 2.00. The pKa (Asp102) was 2.00.
In the case of “Snake cardiotoxin (PDB 1KXI, cardiotoxin V / A5) (Naja atra)”, the pKa (Asp59) is listed as 2.30.
In the case of Thioredoxin (Homo sapiens), the pKa (Glu68; [3]) is given as 5.10, the pKa (Glu68; [4]) is given as 4.90 and the pKa (Asp26; [3]) is given as 8.10. The pKa (Asp26; [4]) was 9.90 and the pKa (Glu6) was 4.90.
